Assay results reported in PMC12428753, “Heparanase-Neutralizing Monoclonal Antibody (mAb A54) Attenuates Tumor Growth and Metastasis” (Cells, 2025).

T1: mature heparanase (active heterodimer of 8 kDa and 50 kDa subunits) (human)
T1 sequence (Q9Y251 whole entry, looked up): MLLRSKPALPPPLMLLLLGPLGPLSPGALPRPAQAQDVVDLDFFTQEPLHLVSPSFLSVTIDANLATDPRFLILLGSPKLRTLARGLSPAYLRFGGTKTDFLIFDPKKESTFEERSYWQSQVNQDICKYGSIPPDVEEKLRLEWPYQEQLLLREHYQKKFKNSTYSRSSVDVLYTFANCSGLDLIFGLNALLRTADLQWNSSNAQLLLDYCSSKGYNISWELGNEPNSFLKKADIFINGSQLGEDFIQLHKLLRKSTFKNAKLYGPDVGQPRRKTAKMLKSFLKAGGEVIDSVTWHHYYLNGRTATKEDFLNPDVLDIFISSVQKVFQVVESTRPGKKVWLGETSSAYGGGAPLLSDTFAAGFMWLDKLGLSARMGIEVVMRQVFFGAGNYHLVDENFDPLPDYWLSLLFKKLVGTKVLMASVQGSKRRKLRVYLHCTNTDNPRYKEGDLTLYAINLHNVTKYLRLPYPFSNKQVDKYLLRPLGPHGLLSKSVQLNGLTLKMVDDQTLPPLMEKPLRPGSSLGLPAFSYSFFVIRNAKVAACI

T2: heparanase protein (form not stated) (human) (UniProt Q9Y251)
T2 sequence: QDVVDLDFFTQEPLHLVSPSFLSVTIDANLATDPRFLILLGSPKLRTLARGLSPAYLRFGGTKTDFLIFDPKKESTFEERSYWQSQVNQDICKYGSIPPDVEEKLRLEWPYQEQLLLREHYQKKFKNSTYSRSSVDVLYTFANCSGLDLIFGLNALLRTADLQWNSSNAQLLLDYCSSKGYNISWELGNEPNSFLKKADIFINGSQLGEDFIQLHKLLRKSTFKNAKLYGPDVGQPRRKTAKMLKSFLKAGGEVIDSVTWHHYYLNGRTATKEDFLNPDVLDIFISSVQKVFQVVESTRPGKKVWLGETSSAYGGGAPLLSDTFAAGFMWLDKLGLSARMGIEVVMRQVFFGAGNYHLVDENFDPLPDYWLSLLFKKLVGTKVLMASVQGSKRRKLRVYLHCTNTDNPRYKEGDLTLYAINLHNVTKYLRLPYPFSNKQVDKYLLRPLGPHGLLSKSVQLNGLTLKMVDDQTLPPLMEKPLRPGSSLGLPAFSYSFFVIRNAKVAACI

B1: A54 anti-heparanase monoclonal antibody (purified from hybridoma A54) (antibody, V domains shown)
VH: QVQLQQSGAELAKPGASVRMSCKASGYTFTNYWMHWVKQRPGQGLEWIGYINPTTGYTEYNQKFKDKATLTADKSSSTAYMQLSSLTSEDSAVYYCARGGAGYDYDEDYAMDYWGQGTSVTVSS
VL: DIVLTQSPASLAVSLGQRATISCRASESVEYFGTSYMNWYQQKPGQPPKLLIYLASILESGIPARFSGSGSGTDFTLNIHPVEEEDAATYYCQQSNEDPYTFGGGTKLEIK
notes: VH of A54; the Fab heavy chain is in the deposited structure PDB 9S8W; mouse IgG1 heavy chain constant region (subclass found with an isotyping kit); CH1 is also in PDB 9S8W; VL of A54; the Fab light chain is in the deposited structure PDB 9S8W; mouse kappa light chain constant region (IgG1-Kappa is stated for the recombinant version); also in PDB 9S8W; Mouse IgG1; whole IgG; Only the Fab part is …
B2: recombinant A54 mAb (antibody, V domains shown)
VH: B1 VH
VL: B1 VL

What was measured:
latent 65 kDa heparanase [1] = target: T3, latent 65 kDa heparanase (Homo sapiens, UniProt Q9Y251); experiment: ELISA; 96-well microtiter plate coated with latent 65 kDa heparanase (Hpa65); purified mAb A54 or control mouse IgG added at the indicated concentrations; details: both partners purified
T3 construct: heparanase, human, unprocessed 65 kDa latent proenzyme on one chain ('full-length latent heparanase'); also called Hpa65; pro-heparanase; source: recombinant

latent 65 kDa heparanase [2] = target: T3, latent 65 kDa heparanase; experiment: SPR; Biacore analysis; orientation and conditions not told; details: both partners purified
[3] = target: T1, mature heparanase (active heterodimer of 8 kDa and 50 kDa subunits) (human)
[4] = target: T2, heparanase protein (form not stated) (human); experiment: not stated; binding affinity of the humanized vs. the mouse A54 antibody for the heparanase protein; service by GenScript

Row | Binder | IC50 (latent 65 kDa heparanase [1]) [nM] | Kd (latent 65 kDa heparanase [2]) [nM] | inhibition of heparanase enzymatic activity by hybridoma A54 supernatant (release of sulfate-labeled HS degradation fragments from 35S-labeled ECM) [3] [%] | Kd [4] [nM]
1 | B1 | 0.2 | 3.18 | 80 | –
2 | B2 | – | – | – | 1
